Positions count from the first letter of the chain named. Numbers in names are those of the source. Where two headings read alike, the source gives them in different places.
Assay: Ratiometric fluorescence glucose titration of fluorescent conjugates
Assay type: binding
Parameters: key to Shape (fluorescence response to glucose) / Change (fluorescence response to glucose): m, monochromatic; d, dichromatic (i.e. spectral shape change); 0, no change
Details: for Shape (fluorescence response to glucose) / Kd: tsGBP2 cysteine scan; for Kd: ratiometric fit at λ1 and λ2; for Change (fluorescence response to glucose): tsGBP 13C affinity mutants, Acrylodan or Badan conjugates
Source text: Semi-synthetic FRSs can be engineered by site-specifically attaching thiol-reactive, environmentally sensitive fluorophores that respond to ligand-mediated conformational changes. Identification of FRS candidates that can be used for sensing applications comprises three steps: • 1. Cysteine scan. Mutant glucose-binding proteins containing single cysteines are constructed for site-specific attachment of thiol-reactive fluorophores. […] Candidate positions fall into three classes: endosteric, replacing a residue that contacts the ligand directly; peristeric, located at the rim of the binding site; allosteric (Marvin et al., 1997, Proc Natl Acad Sci USA, 94, 4366-71; Marvin, 1998, J Am Chem Soc, 120, 7-11), located outside the binding site at sites that undergo local structural changes in concert with the hinge-bending motion. • 2. Fluorophore screening. Thiol-reactive, environmentally sensitive fluorophores are attached to each cysteine mutant prepared in step 1. • 3. Evaluation of the glucose-mediated change of all the fluorescent conjugates prepared in step 2. Responses to ligand binding in which there is both a change in fluorescence emission intensity and spectral shape are essential for chemometric applications, because such changes enable ratiometric measurements. Changes in spectral shape typically are accompanied by a shift in the wavelength of the emission intensity maxima. Three classes of fluorescent responses are possible: • i. No response. • ii. Monochromatic response (emission intensity increases or decreases without a change in spectral shape) • iii.
Determination of temperature- and ligand-dependent fluorescence landscapes. […] Temperatures were advanced in 1K steps.
Determination of emission intensity spectra.
2 For a single glucose-binding site, the fractional saturation is given by […]

B1: H348 Badan: tsGBP2_C348 (SEQ ID NO: 35) Badan conjugate (conjugate)
chain: MKLEIFSWWAGDEGPALEALIRLYKQKYPGVEVINATVTGGAGVNAKAVLKTRMLGGDPPDTFQVHAGQELIGTWVVADRMEDLTSLFRQEGWLQAFPKGLIDLLSYKGGIWSVPVNIHRSNVMWYIPAKLKEWGVTPPKTWAEFLATAQTLKRKGLEAPLALGENWTQQHLWESVALATLGADGWNNLWSGKLKFTDPKAVAVWETFGKVLDAANKDAAGLSWQQAVDRVVQGKAAFNIMGDWAAGYMSTTLKLKPGTDFAWTPSPGTSGIFMMLSDSFGLPKGAKNRQNAINWLKLVGSKEGQDTFNPLKGSIAARLDSDPAKYNAYGQSAMKDWKSNRIVGSLVCGAVAPESFMSQFGTVMEIFLQSRNPQAAANAAQAIANQVGLGRGGSHHHHHH
modifications: Badan conjugate; tsGBP2_C348 (348C substitution mutant with signal peptide replaced with M and a GGSHHHHHH at C-terminus)
Shape (fluorescence response to glucose) (Badan conjugate): d
Kd (Badan conjugate, read-out: Kd ^appKd): ~4.3 mM
Kd (Badan conjugate, read-out: Kd ^trueKd): ~5.2 mM

B2: H348 Acrylodan: tsGBP2_C348 (SEQ ID NO: 35) Acrylodan conjugate (conjugate)
chain: B1 chain
modifications: Acrylodan conjugate; tsGBP2_C348 (348C substitution mutant with signal peptide replaced with M and a GGSHHHHHH at C-terminus)
Shape (fluorescence response to glucose) (Acrylodan conjugate): m
Kd (Acrylodan conjugate, read-out: Kd ^appKd): ~1.3 mM

B3: M357 Acrylodan: tsGBP2_C357 (SEQ ID NO: 36) Acrylodan conjugate (conjugate)
chain: B1 chain with C348H, M357C
modifications: Acrylodan conjugate; tsGBP2_C357 (357C substitution mutant with signal peptide replaced with M and a GGSHHHHHH at C-terminus)
Shape (fluorescence response to glucose) (Acrylodan conjugate): 0

B4: M357 Badan: tsGBP2_C357 (SEQ ID NO: 36) Badan conjugate (conjugate)
chain: B1 chain with C348H, M357C
modifications: Badan conjugate; tsGBP2_C357 (357C substitution mutant with signal peptide replaced with M and a GGSHHHHHH at C-terminus)
Shape (fluorescence response to glucose) (Badan conjugate): m

B5: W8C Acrylodan: tsGBP2_C8 (SEQ ID NO: 17) Acrylodan conjugate (conjugate)
chain: B1 chain with W8C, C348H
modifications: Acrylodan conjugate; tsGBP2_C8 (8C substitution mutant with signal peptide replaced with M and a GGSHHHHHH at C-terminus)
Shape (fluorescence response to glucose) (Acrylodan conjugate): m

B6: W8C Badan: tsGBP2_C8 (SEQ ID NO: 17) Badan conjugate (conjugate)
chain: B1 chain with W8C, C348H
modifications: Badan conjugate; tsGBP2_C8 (8C substitution mutant with signal peptide replaced with M and a GGSHHHHHH at C-terminus)
Shape (fluorescence response to glucose) (Badan conjugate): m

B7: W9C Acrylodan: tsGBP2_C9 (SEQ ID NO: 18) Acrylodan conjugate (conjugate)
chain: B1 chain with W9C, C348H
modifications: Acrylodan conjugate; tsGBP2_C9 (9C substitution mutant with signal peptide replaced with M and a GGSHHHHHH at C-terminus)
Shape (fluorescence response to glucose) (Acrylodan conjugate): m

B8: W9C Badan: tsGBP2_C9 (SEQ ID NO: 18) Badan conjugate (conjugate)
chain: B1 chain with W9C, C348H
modifications: Badan conjugate; tsGBP2_C9 (9C substitution mutant with signal peptide replaced with M and a GGSHHHHHH at C-terminus)
Shape (fluorescence response to glucose) (Badan conjugate): m

B9: W8F A: tsGBP2.13C.W8F (SEQ ID NO: 37) Acrylodan conjugate (conjugate)
chain: B1 chain with W8F, E13C, C348H
modifications: Acrylodan conjugate; tsGBP2.13C.W8F (13C, 8F double substitution mutant)
Change (fluorescence response to glucose): 0

B10: W8F B: tsGBP2.13C.W8F (SEQ ID NO: 37) Badan conjugate (conjugate)
chain: B1 chain with W8F, E13C, C348H
modifications: Badan conjugate; tsGBP2.13C.W8F (13C, 8F double substitution mutant)
Change (fluorescence response to glucose): 0

B11: W8M B: tsGBP2.13C.W8M (SEQ ID NO: 38) Badan conjugate (conjugate)
chain: B1 chain with W8M, E13C, C348H
modifications: Badan conjugate; tsGBP2.13C.W8M (13C, 8M double substitution mutant with signal peptide replaced with M and a GGSHHHHHH at C-terminus)
Change (fluorescence response to glucose): m

B12: W8Y A: tsGBP2.13C.W8Y (SEQ ID NO: 39) Acrylodan conjugate (conjugate)
chain: B1 chain with W8Y, E13C, C348H
modifications: Acrylodan conjugate; tsGBP2.13C.W8Y (13C, 8Y double substitution mutant with signal peptide replaced with M and a GGSHHHHHH at C-terminus)
Change (fluorescence response to glucose): m/d^c

B13: W8Y B: tsGBP2.13C.W8Y (SEQ ID NO: 39) Badan conjugate (conjugate)
chain: B1 chain with W8Y, E13C, C348H
modifications: Badan conjugate; tsGBP2.13C.W8Y (13C, 8Y double substitution mutant with signal peptide replaced with M and a GGSHHHHHH at C-terminus)
Change (fluorescence response to glucose): 0

B14: W9F A: tsGBP2.13C.W9F (SEQ ID NO: 40) Acrylodan conjugate (conjugate)
chain: B1 chain with W9F, E13C, C348H
modifications: Acrylodan conjugate; tsGBP2.13C.W9F (13C 9F double substitution mutant with signal peptide replaced with M and a GGSHHHHHH at C-terminus)
Change (fluorescence response to glucose): m

B15: W9F B: tsGBP2.13C.W9F (SEQ ID NO: 40) Badan conjugate (conjugate)
chain: B1 chain with W9F, E13C, C348H
modifications: Badan conjugate; tsGBP2.13C.W9F (13C 9F double substitution mutant with signal peptide replaced with M and a GGSHHHHHH at C-terminus)
Change (fluorescence response to glucose): 0

B16: W9M A: tsGBP2.13C.W9M (SEQ ID NO: 41) Acrylodan conjugate (conjugate)
chain: B1 chain with W9M, E13C, C348H
modifications: Acrylodan conjugate; tsGBP2.13C.W9M (13C 9M double substitution mutant with signal peptide replaced with M and a GGSHHHHHH at C-terminus)
Change (fluorescence response to glucose): m

B17: W9M B: tsGBP2.13C.W9M (SEQ ID NO: 41) Badan conjugate (conjugate)
chain: B1 chain with W9M, E13C, C348H
modifications: Badan conjugate; tsGBP2.13C.W9M (13C 9M double substitution mutant with signal peptide replaced with M and a GGSHHHHHH at C-terminus)
Change (fluorescence response to glucose): m^c

B18: W9Y B: tsGBP2.13C.W9Y (SEQ ID NO: 42) Badan conjugate (conjugate)
chain: B1 chain with W9Y, E13C, C348H
modifications: Badan conjugate; tsGBP2.13C.W9Y (13C, 9Y double substitution mutant with signal peptide replaced with M and a GGSHHHHHH at C-terminus)
Change (fluorescence response to glucose): m
